Reference: PMC3021135

Molecular target: hAGT C145S (O6-alkylguanine-DNA alkyltransferase, inactive mutant) (human, UniProt P16455 1-207, C145S)
Test: EMSA

Sequence of hAGT C145S (O6-alkylguanine-DNA alkyltransferase, inactive mutant) (P16455 whole entry C145S): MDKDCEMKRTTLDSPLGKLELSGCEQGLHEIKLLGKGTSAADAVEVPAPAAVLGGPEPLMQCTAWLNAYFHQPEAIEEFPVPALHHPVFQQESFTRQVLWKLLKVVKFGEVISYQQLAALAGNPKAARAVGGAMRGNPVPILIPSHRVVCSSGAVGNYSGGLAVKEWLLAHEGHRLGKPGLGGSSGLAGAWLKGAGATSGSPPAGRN

B1: Control (non-cross-linked duplex) (dsDNA)
DNA 1: CGATGTCATCG
DNA 2: CGATGACATCG
  Kd: 8.36 ± 1.11 µM
